Data published in FireProtDB (doi:10.1021/bi0015717).
Where “and” joins values, the source holds several entries; their conditions need not be identical. Equal values may be shown once.

B1: Lysozyme C, P61626 (parent)
chain: MKALIVLGLVLLSVTVQGKVFERCELARTLKRLGMDGYRGISLANWMCLAKWESGYNTRATNYNAGDRSTDYGIFQINSRYWCNDGKTPGAVNACHLSCSALLQDNIADAVACAKRVVRDPQGIRAWVAWRNRCQNRDVRQYVQGCGV

Variants of: B1
Conditions: Homo sapiens; pH 2.5; Thermal; DSC; glycine-HCl 0.05 M; reversible: yes; structure 1LZ1; whole UniProt chain shown

Variant | Tm | unfolding enthalpy (calorimetric)
MKALIVLGLVLLSVTVQGKVFERCELARTLKRLGMDGYRGISLANWMCLAKWESGYNTRATNYNAGDRSTDYGIFQINSRYWCNDGKTPGAMNACHLSCSALLQDNIADAVACAKRVVRDPQGIRAWVAWRNRCQNRDVRQYVQGCGV | 63.4 °C | 107 kcal/mol
MKALIVLGLVLLSVTVQGKVFERCELARTLKRLGMDGYRGISLANWMCLAKWESGYNTRATNYNAGDRSTDYGIFQINSRYWCNDGKTPGAVNACHLSCSALLQDNIADAVACAKRVVRDPQGIRAWLAWRNRCQNRDVRQYVQGCGV | 61.9 °C | 105 kcal/mol

Same assay, conditions: Homo sapiens; pH 2.7; 64.9 °C; Thermal; DSC; glycine-HCl 0.05 M; reversible: yes; structure 1LZ1; whole UniProt chain shown

Variant | ddG of mutation (higher = less stable)
MKALIVLGLVLLSVTVQGKVFERCELARTLKRLGMDGYRGISLANWMCLAKWESGYNTRATNYNAGDRSTDYGIFQINSRYWCNDGKTPGAMNACHLSCSALLQDNIADAVACAKRVVRDPQGIRAWVAWRNRCQNRDVRQYVQGCGV | -0.65 kcal/mol
MKALIVLGLVLLSVTVQGKVFERCELARTLKRLGMDGYRGISLANWMCLAKWESGYNTRATNYNAGDRSTDYGIFQINSRYWCNDGKTPGAGNACHLSCSALLQDNIADAVACAKRVVRDPQGIRAWVAWRNRCQNRDVRQYVQGCGV | 0.22 kcal/mol
MKALIVLGLVLLSVTVQGKVFERCELARTLKRLGMDGYRGISLANWMCLAKWESGYNTRATNYNAGDRSTDYGIFQINSRYWCNDGKTPGAVNACHLSCSALLQDNIADAVACAKRVVRDPQGIRAWLAWRNRCQNRDVRQYVQGCGV | -0.07 kcal/mol

Same assay, conditions: Homo sapiens; pH 2.7; Thermal; DSC; glycine-HCl 0.05 M; reversible: yes; structure 1LZ1; whole UniProt chain shown

Variant | Tm | change of melting temperature, mutant - wild type (higher = more stable) | heat capacity change of unfolding | unfolding enthalpy (calorimetric)
MKALIVLGLVLLSVTVQGKVFERCELARTLKRLGMDGYRGISLANWMCLAKWESGYNTRATNYNAGDRSTDYGIFQINSRYWCNDGKTPGAMNACHLSCSALLQDNIADAVACAKRVVRDPQGIRAWVAWRNRCQNRDVRQYVQGCGV | 66.9 °C and 64.9 °C | 2 °C | 1.58 kcal/mol/K | 113 kcal/mol and 109 kcal/mol
MKALIVLGLVLLSVTVQGKVFERCELARTLKRLGMDGYRGISLANWMCLAKWESGYNTRATNYNAGDRSTDYGIFQINSRYWCNDGKTPGAGNACHLSCSALLQDNIADAVACAKRVVRDPQGIRAWVAWRNRCQNRDVRQYVQGCGV | 64.9 °C |  |  | 
MKALIVLGLVLLSVTVQGKVFERCELARTLKRLGMDGYRGISLANWMCLAKWESGYNTRATNYNAGDRSTDYGIFQINSRYWCNDGKTPGAVNACHLSCSALLQDNIADAVACAKRVVRDPQGIRAWLAWRNRCQNRDVRQYVQGCGV | 65 °C and 65.1 °C and 64.9 °C | 0.2 °C | 1.29 kcal/mol/K | 108 kcal/mol and 109 kcal/mol
MKALIVLGLVLLSVTVQGKVFERCELARTLKRLGMDGYRGISLANWMCLAKWESGYNTRATNYNAGDRSTDYGIFQINSRYWCNDGKTPGAVNACHLSCSALLQDNIADAVACAKRVVRDPQGIRAWMAWRNRCQNRDVRQYVQGCGV | 66.3 °C and 66.5 °C and 64.9 °C | 1.6 °C | 1.41 kcal/mol/K | 114 kcal/mol and 112 kcal/mol

Same assay, conditions: Homo sapiens; pH 2.83; Thermal; DSC; glycine-HCl 0.05 M; reversible: yes; structure 1LZ1; whole UniProt chain shown

Variant | Tm | unfolding enthalpy (calorimetric)
MKALIVLGLVLLSVTVQGKVFERCELARTLKRLGMDGYRGISLANWMCLAKWESGYNTRATNYNAGDRSTDYGIFQINSRYWCNDGKTPGAMNACHLSCSALLQDNIADAVACAKRVVRDPQGIRAWVAWRNRCQNRDVRQYVQGCGV | 69.4 °C | 117 kcal/mol

Same assay, conditions: Homo sapiens; pH 3.1; Thermal; DSC; glycine-HCl 0.05 M; reversible: yes; structure 1LZ1; whole UniProt chain shown

Variant | Tm | unfolding enthalpy (calorimetric)
MKALIVLGLVLLSVTVQGKVFERCELARTLKRLGMDGYRGISLANWMCLAKWESGYNTRATNYNAGDRSTDYGIFQINSRYWCNDGKTPGAMNACHLSCSALLQDNIADAVACAKRVVRDPQGIRAWVAWRNRCQNRDVRQYVQGCGV | 73.2 °C | 123 kcal/mol

Same assay, conditions: Homo sapiens; pH 3.2; Thermal; DSC; glycine-HCl 0.05 M; reversible: yes; structure 1LZ1; whole UniProt chain shown

Variant | Tm | unfolding enthalpy (calorimetric)
MKALIVLGLVLLSVTVQGKVFERCELARTLKRLGMDGYRGISLANWMCLAKWESGYNTRATNYNAGDRSTDYGIFQINSRYWCNDGKTPGAMNACHLSCSALLQDNIADAVACAKRVVRDPQGIRAWVAWRNRCQNRDVRQYVQGCGV | 75 °C | 125 kcal/mol

Same assay, conditions: Homo sapiens; pH 2.53; Thermal; DSC; glycine-HCl 0.05 M; reversible: yes; structure 1LZ1; whole UniProt chain shown

Variant | Tm | unfolding enthalpy (calorimetric)
MKALIVLGLVLLSVTVQGKVFERCELARTLKRLGMDGYRGISLANWMCLAKWESGYNTRATNYNAGDRSTDYGIFQINSRYWCNDGKTPGAGNACHLSCSALLQDNIADAVACAKRVVRDPQGIRAWVAWRNRCQNRDVRQYVQGCGV | 61.3 °C | 108 kcal/mol

Same assay, conditions: Homo sapiens; pH 2.95; Thermal; DSC; glycine-HCl 0.05 M; reversible: yes; structure 1LZ1; whole UniProt chain shown

Variant | Tm | unfolding enthalpy (calorimetric)
MKALIVLGLVLLSVTVQGKVFERCELARTLKRLGMDGYRGISLANWMCLAKWESGYNTRATNYNAGDRSTDYGIFQINSRYWCNDGKTPGAGNACHLSCSALLQDNIADAVACAKRVVRDPQGIRAWVAWRNRCQNRDVRQYVQGCGV | 68.7 °C | 121 kcal/mol

Same assay, conditions: Homo sapiens; pH 3.09; Thermal; DSC; glycine-HCl 0.05 M; reversible: yes; structure 1LZ1; whole UniProt chain shown

Variant | Tm | unfolding enthalpy (calorimetric)
MKALIVLGLVLLSVTVQGKVFERCELARTLKRLGMDGYRGISLANWMCLAKWESGYNTRATNYNAGDRSTDYGIFQINSRYWCNDGKTPGAGNACHLSCSALLQDNIADAVACAKRVVRDPQGIRAWVAWRNRCQNRDVRQYVQGCGV | 70.8 °C | 124 kcal/mol

Same assay, conditions: Homo sapiens; pH 3.3; Thermal; DSC; glycine-HCl 0.05 M; reversible: yes; structure 1LZ1; whole UniProt chain shown

Variant | Tm | unfolding enthalpy (calorimetric)
MKALIVLGLVLLSVTVQGKVFERCELARTLKRLGMDGYRGISLANWMCLAKWESGYNTRATNYNAGDRSTDYGIFQINSRYWCNDGKTPGAGNACHLSCSALLQDNIADAVACAKRVVRDPQGIRAWVAWRNRCQNRDVRQYVQGCGV | 74 °C | 129 kcal/mol

Same assay, conditions: Homo sapiens; pH 2.82; Thermal; DSC; glycine-HCl 0.05 M; reversible: yes; structure 1LZ1; whole UniProt chain shown

Variant | Tm | unfolding enthalpy (calorimetric)
MKALIVLGLVLLSVTVQGKVFERCELARTLKRLGMDGYRGISLANWMCLAKWESGYNTRATNYNAGDRSTDYGIFQINSRYWCNDGKTPGAVNACHLSCSALLQDNIADAVACAKRVVRDPQGIRAWLAWRNRCQNRDVRQYVQGCGV | 67 °C | 111 kcal/mol

Same assay, conditions: Homo sapiens; pH 3.03; Thermal; DSC; glycine-HCl 0.05 M; reversible: yes; structure 1LZ1; whole UniProt chain shown

Variant | Tm | unfolding enthalpy (calorimetric)
MKALIVLGLVLLSVTVQGKVFERCELARTLKRLGMDGYRGISLANWMCLAKWESGYNTRATNYNAGDRSTDYGIFQINSRYWCNDGKTPGAVNACHLSCSALLQDNIADAVACAKRVVRDPQGIRAWLAWRNRCQNRDVRQYVQGCGV | 70.5 °C | 115 kcal/mol

Same assay, conditions: Homo sapiens; pH 3.25; Thermal; DSC; glycine-HCl 0.05 M; reversible: yes; structure 1LZ1; whole UniProt chain shown

Variant | Tm | unfolding enthalpy (calorimetric)
MKALIVLGLVLLSVTVQGKVFERCELARTLKRLGMDGYRGISLANWMCLAKWESGYNTRATNYNAGDRSTDYGIFQINSRYWCNDGKTPGAVNACHLSCSALLQDNIADAVACAKRVVRDPQGIRAWLAWRNRCQNRDVRQYVQGCGV | 74.5 °C | 121 kcal/mol

Same assay, conditions: Homo sapiens; pH 2.48; Thermal; DSC; glycine-HCl 0.05 M; reversible: yes; structure 1LZ1; whole UniProt chain shown

Variant | Tm | unfolding enthalpy (calorimetric)
MKALIVLGLVLLSVTVQGKVFERCELARTLKRLGMDGYRGISLANWMCLAKWESGYNTRATNYNAGDRSTDYGIFQINSRYWCNDGKTPGAVNACHLSCSALLQDNIADAVACAKRVVRDPQGIRAWMAWRNRCQNRDVRQYVQGCGV | 62.8 °C | 109 kcal/mol

Same assay, conditions: Homo sapiens; pH 3.06; Thermal; DSC; glycine-HCl 0.05 M; reversible: yes; structure 1LZ1; whole UniProt chain shown

Variant | Tm | unfolding enthalpy (calorimetric)
MKALIVLGLVLLSVTVQGKVFERCELARTLKRLGMDGYRGISLANWMCLAKWESGYNTRATNYNAGDRSTDYGIFQINSRYWCNDGKTPGAVNACHLSCSALLQDNIADAVACAKRVVRDPQGIRAWMAWRNRCQNRDVRQYVQGCGV | 72.8 °C | 123 kcal/mol
